This note sets out measurements from PMC6374115.

The data set in a line: live-cell confocal, cytosolic distribution. The following applies: glycan lost; control: WT YFP-cryAB.

B1: cryAB (crystallin alphaB / HspB5): T170A (protein)
parent chain: MDIAIHHPWIRRPFFPFHSPSRLFDQFFGEHLLESDLFPTSTSLSPFYLRPPSFLRAPSWFDTGLSEMRLEKDRFSVNLDVKHFSPEELKVKVLGDVIEVHGKHEERQDEHGFISREFHRKYRIPADVDPLTITSSLSSDGVLTVNGPRKQVSGPERTIPITREEKPAVTAAPKK
B1: the localisation_or_trafficking result is “changes”.
